One block for each molecule: values may come before it.
Tests used:
[1] = target: myristoylatable decapeptide corresponding to the N-terminal sequence of ct-Bid; test: cell-based or functional assay
[2] = system: Jurkat T cells; test: Effect of HMA on the induction of apoptosis, immunoblot; type: cell-based, human
Description: HMA was saponified and conjugated to bovine serum albumin (BSA) prior to addition to cells to facilitate its cellular uptake as described previously (Yap et al., 2010). Briefly, HMA was incubated with a 20% molar excess of potassium hydroxide (KOH) at 65° C. for 15 min. Subsequently, a 20× solution was made by dissolving the KOH saponified HMA in serum-free RPMI media containing 20% fatty acid-free BSA at 37° C., followed by an additional 15 min incubation at 37° C. Since sodium myristate was used as a control, it was also incubated in serum-free RPMI media containing 20% fatty acid-free BSA at 37° C. prior to addition to cells. Subsequently, Jurkat T cells (1×10^7 cells) were incubated with either 1 mM HMA or 1 mM sodium myristate conjugated to fatty-acid free BSA (final concentration in cell culture 1%) for 1 h at 37° C. in RPMI media (without FBS, supplements or antibiotics). After incubation, apoptosis was induced using anti-Fas (150 ng/mL) or STS (2.5 μM) with cycloheximide (5 μg/mL) or vehicle alone (DMSO). Samples were collected every 2 h for an 8 h period, washed with cold PBS and lysed with 0.3 mL of 1% sodium dodecyl sulfate (SDS)-radio-immuno-precipitation assay (RIPA) buffer and subjected to 2 rounds of sonication for 15 seconds at an output of 5.5-6.5 on a Branson Sonifier and placed on ice for 2 min in between each cycle. […]

[3] = target: T1, myristoylatable decapeptide corresponding to the N-terminal sequence of ct-Bid
T1 chain: GNRSSHSRLG

[4] = target: T2, His-NMT1 (recombinant hexahistidine-tagged full-length human N-myristoyltransferase 1), P30419
T2 chain: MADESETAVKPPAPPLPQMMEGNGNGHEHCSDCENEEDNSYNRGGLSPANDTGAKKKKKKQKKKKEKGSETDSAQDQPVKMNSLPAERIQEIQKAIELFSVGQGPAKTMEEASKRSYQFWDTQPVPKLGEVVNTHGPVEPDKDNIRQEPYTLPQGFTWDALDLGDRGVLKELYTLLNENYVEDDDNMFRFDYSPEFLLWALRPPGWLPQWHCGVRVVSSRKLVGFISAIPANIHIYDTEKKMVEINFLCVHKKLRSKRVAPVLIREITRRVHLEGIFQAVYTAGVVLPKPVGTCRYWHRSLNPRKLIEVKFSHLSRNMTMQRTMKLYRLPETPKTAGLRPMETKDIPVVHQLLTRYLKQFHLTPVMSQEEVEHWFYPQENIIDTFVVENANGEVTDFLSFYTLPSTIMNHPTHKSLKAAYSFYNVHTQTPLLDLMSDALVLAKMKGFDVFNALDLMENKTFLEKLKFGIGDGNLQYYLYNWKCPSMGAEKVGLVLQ

[5] = target: T3, His-NMT2 (recombinant hexahistidine-tagged full-length human N-myristoyltransferase 2), O60551
T3 chain: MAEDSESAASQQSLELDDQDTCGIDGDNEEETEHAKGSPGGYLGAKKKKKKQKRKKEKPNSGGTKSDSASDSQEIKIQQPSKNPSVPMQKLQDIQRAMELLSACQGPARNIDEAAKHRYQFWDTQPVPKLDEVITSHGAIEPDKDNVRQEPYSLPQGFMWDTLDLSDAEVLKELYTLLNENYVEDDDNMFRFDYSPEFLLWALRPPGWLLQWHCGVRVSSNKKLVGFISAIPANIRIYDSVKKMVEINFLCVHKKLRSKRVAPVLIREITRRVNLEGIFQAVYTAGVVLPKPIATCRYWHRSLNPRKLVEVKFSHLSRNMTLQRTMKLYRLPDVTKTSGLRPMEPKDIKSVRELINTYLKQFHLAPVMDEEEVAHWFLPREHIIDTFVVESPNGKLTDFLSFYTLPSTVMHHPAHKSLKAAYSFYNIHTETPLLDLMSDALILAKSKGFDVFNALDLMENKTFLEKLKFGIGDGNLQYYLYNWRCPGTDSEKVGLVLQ

- NMT activity in lysates of transfected COS-7 cells relative to cells expressing V5-NMT2 (peptide myristoylation assay) [1]: 5 fold
Molecule: V5-NMT1 (N-terminally V5-tagged NMT1) (from UniProt P30419 1-496) (enzyme)

Molecule: CCCCCCCCCCCCC(O)C(=O)O (stereo not shown) [HMA, 2-hydroxymyristic acid]
- time by which cleavage of PARP-1 occurred sooner than with 1 mM sodium myristate ([2]; 1 mM HMA and anti-Fas): 2 h
- PARP-1 and PAK2 cleavage vs STS and 1 mM sodium myristate ([2]; HMA/STS, 2 h post induction): more PARP-1 and PAK2 cleavage

B1: His-68NMT2 (His-tagged caspase-cleaved, truncated human NMT2) (protein)
chain: SASDSQEIKIQQPSKNPSVPMQKLQDIQRAMELLSACQGPARNIDEAAKHRYQFWDTQPVPKLDEVITSHGAIEPDKDNVRQEPYSLPQGFMWDTLDLSDAEVLKELYTLLNENYVEDDDNMFRFDYSPEFLLWALRPPGWLLQWHCGVRVSSNKKLVGFISAIPANIRIYDSVKKMVEINFLCVHKKLRSKRVAPVLIREITRRVNLEGIFQAVYTAGVVLPKPIATCRYWHRSLNPRKLVEVKFSHLSRNMTLQRTMKLYRLPDVTKTSGLRPMEPKDIKSVRELINTYLKQFHLAPVMDEEEVAHWFLPREHIIDTFVVESPNGKLTDFLSFYTLPSTVMHHPAHKSLKAAYSFYNIHTETPLLDLMSDALILAKSKGFDVFNALDLMENKTFLEKLKFGIGDGNLQYYLYNWRCPGTDSEKVGLVLQ
- NMT activity (filter-based peptide myristoylation assay) [3]: both full-length and caspase cleaved truncated NMT1 and NMT2 were catalytically active when compared to the control
- NMT activity relative to full-length NMT2 (filter-based peptide myristoylation assay) [3]: ˜4-fold (His-68NMT2) more activity when compared to full-length NMT2

B2: His-NMT1 (recombinant hexahistidine-tagged full-length human N-myristoyltransferase 1) (protein)
chain: MADESETAVKPPAPPLPQMMEGNGNGHEHCSDCENEEDNSYNRGGLSPANDTGAKKKKKKQKKKKEKGSETDSAQDQPVKMNSLPAERIQEIQKAIELFSVGQGPAKTMEEASKRSYQFWDTQPVPKLGEVVNTHGPVEPDKDNIRQEPYTLPQGFTWDALDLGDRGVLKELYTLLNENYVEDDDNMFRFDYSPEFLLWALRPPGWLPQWHCGVRVVSSRKLVGFISAIPANIHIYDTEKKMVEINFLCVHKKLRSKRVAPVLIREITRRVHLEGIFQAVYTAGVVLPKPVGTCRYWHRSLNPRKLIEVKFSHLSRNMTMQRTMKLYRLPETPKTAGLRPMETKDIPVVHQLLTRYLKQFHLTPVMSQEEVEHWFYPQENIIDTFVVENANGEVTDFLSFYTLPSTIMNHPTHKSLKAAYSFYNVHTQTPLLDLMSDALVLAKMKGFDVFNALDLMENKTFLEKLKFGIGDGNLQYYLYNWKCPSMGAEKVGLVLQ
- NMT activity (filter-based peptide myristoylation assay) [3]: both full-length and caspase cleaved truncated NMT1 and NMT2 were catalytically active when compared to the control

B3: recombinant human active caspase-8 (protein)
chain: SESQTLDKVYQMKSKPRGYCLIINNHNFAKAREKVPKLHSIRDRNGTHLDAGALTTTFEELHFEIKPHDDCTVEQIYEILKIYQLMDHSNMDCFICCILSHGDKGIIYGTDGQEAPIYELTSQFTGLKCPSLAGKPKVFFIQACQGDNYQKGIPVETDSEEQPYLEMDLSSPQTRYIPDEADFLLGMATVNNCVSYRNPAEGTWYIQSLCQSLRERCPRGDDILTILTEVNYEVSNKDDKKNMGKQMPQPTFTLRKKLVFPSD
- in vitro NMT cleavage assay (Coomassie stained gel) [4]: Reconstitution of NMT1 cleavage by caspases-8 and -3, and, NMT2 cleavage by caspase-3 in vitro

B4: His-73NMT1 (His-tagged caspase-cleaved, truncated human NMT1) (protein)
chain: SAQDQPVKMNSLPAERIQEIQKAIELFSVGQGPAKTMEEASKRSYQFWDTQPVPKLGEVVNTHGPVEPDKDNIRQEPYTLPQGFTWDALDLGDRGVLKELYTLLNENYVEDDDNMFRFDYSPEFLLWALRPPGWLPQWHCGVRVVSSRKLVGFISAIPANIHIYDTEKKMVEINFLCVHKKLRSKRVAPVLIREITRRVHLEGIFQAVYTAGVVLPKPVGTCRYWHRSLNPRKLIEVKFSHLSRNMTMQRTMKLYRLPETPKTAGLRPMETKDIPVVHQLLTRYLKQFHLTPVMSQEEVEHWFYPQENIIDTFVVENANGEVTDFLSFYTLPSTIMNHPTHKSLKAAYSFYNVHTQTPLLDLMSDALVLAKMKGFDVFNALDLMENKTFLEKLKFGIGDGNLQYYLYNWKCPSMGAEKVGLVLQ
- NMT activity (filter-based peptide myristoylation assay) [3]: both full-length and caspase cleaved truncated NMT1 and NMT2 were catalytically active when compared to the control

B5: His-NMT2 (recombinant hexahistidine-tagged full-length human N-myristoyltransferase 2) (protein)
chain: MAEDSESAASQQSLELDDQDTCGIDGDNEEETEHAKGSPGGYLGAKKKKKKQKRKKEKPNSGGTKSDSASDSQEIKIQQPSKNPSVPMQKLQDIQRAMELLSACQGPARNIDEAAKHRYQFWDTQPVPKLDEVITSHGAIEPDKDNVRQEPYSLPQGFMWDTLDLSDAEVLKELYTLLNENYVEDDDNMFRFDYSPEFLLWALRPPGWLLQWHCGVRVSSNKKLVGFISAIPANIRIYDSVKKMVEINFLCVHKKLRSKRVAPVLIREITRRVNLEGIFQAVYTAGVVLPKPIATCRYWHRSLNPRKLVEVKFSHLSRNMTLQRTMKLYRLPDVTKTSGLRPMEPKDIKSVRELINTYLKQFHLAPVMDEEEVAHWFLPREHIIDTFVVESPNGKLTDFLSFYTLPSTVMHHPAHKSLKAAYSFYNIHTETPLLDLMSDALILAKSKGFDVFNALDLMENKTFLEKLKFGIGDGNLQYYLYNWRCPGTDSEKVGLVLQ
- NMT activity (filter-based peptide myristoylation assay) [3]: both full-length and caspase cleaved truncated NMT1 and NMT2 were catalytically active when compared to the control

B6: His-26NMT2 (His-tagged caspase-cleaved, truncated human NMT2) (protein)
chain: GDNEEETEHAKGSPGGYLGAKKKKKKQKRKKEKPNSGGTKSDSASDSQEIKIQQPSKNPSVPMQKLQDIQRAMELLSACQGPARNIDEAAKHRYQFWDTQPVPKLDEVITSHGAIEPDKDNVRQEPYSLPQGFMWDTLDLSDAEVLKELYTLLNENYVEDDDNMFRFDYSPEFLLWALRPPGWLLQWHCGVRVSSNKKLVGFISAIPANIRIYDSVKKMVEINFLCVHKKLRSKRVAPVLIREITRRVNLEGIFQAVYTAGVVLPKPIATCRYWHRSLNPRKLVEVKFSHLSRNMTLQRTMKLYRLPDVTKTSGLRPMEPKDIKSVRELINTYLKQFHLAPVMDEEEVAHWFLPREHIIDTFVVESPNGKLTDFLSFYTLPSTVMHHPAHKSLKAAYSFYNIHTETPLLDLMSDALILAKSKGFDVFNALDLMENKTFLEKLKFGIGDGNLQYYLYNWRCPGTDSEKVGLVLQ
- NMT activity (filter-based peptide myristoylation assay) [3]: both full-length and caspase cleaved truncated NMT1 and NMT2 were catalytically active when compared to the control
- NMT activity relative to full-length NMT2 (filter-based peptide myristoylation assay) [3]: ˜3-fold (His-26NMT2) ... more activity when compared to full-length NMT2

B7: recombinant human active caspase-3 (protein)
chain: SGISLDNSYKMDYPEMGLCIIINNKNFHKSTGMTSRSGTDVDAANLRETFRNLKYEVRNKNDLTREEIVELMRDVSKEDHSKRSSFVCVLLSHGEEGIIFGTNGPVDLKKITNFFRGDRCRSLTGKPKLFIIQACRGTELDCGIETDSGVDDDMACHKIPVEADFLYAYSTAPGYYSWRNSKDGSWFIQSLCAMLKQYADKLEFMHILTRVNRKVATEFESFSFDATFHAKKQIPCIVSMLTKELYFYH
- in vitro NMT cleavage assay (Coomassie stained gel) [4]: Reconstitution of NMT1 cleavage by caspases-8 and -3, and, NMT2 cleavage by caspase-3 in vitro
- in vitro NMT cleavage assay (Coomassie stained gel) [5]: Reconstitution of NMT1 cleavage by caspases-8 and -3, and, NMT2 cleavage by caspase-3 in vitro

Reference: patent publication US20250179589A1, “SYNTHETIC LETHALITY AND THE TREATMENT OF CANCER” (PACYLEX PHARMACEUTICALS INC., priority 2012, published 2025)
